According to US20020035246, “SMAD-interacting polypeptides and their use” (published 2002):

Target: T1, SIP1CZF (C-terminal zinc finger cluster of SIP1) (Mus musculus, UniProt Q9R0G7 SEQ:728-805)
T1 sequence: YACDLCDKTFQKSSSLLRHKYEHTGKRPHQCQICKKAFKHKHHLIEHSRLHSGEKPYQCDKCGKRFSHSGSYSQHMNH
Test: EMSA; competed by excess unlabeled self
Details: tags: GST fusion, E. coli; label: 32P

B1: Brachyury binding site (dsDNA)
DNA 1: TGACACCTAGGTGTGAATT
DNA 2: AATTCACACCTAGGTGTCA
**Q.** Does B1 bind?
**A.** binds
